# System: MS2 coat protein
# Assay: apparent KD of MS2 coat protein; designed switch direction (-1 OFF switch, 1 ON switch): -1; higher = weaker reporter binding
# Summary of the method: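 The reported apparent KD is a per-design median over clusters, from curve fits of normalised cluster fluorescence. Protein titrations used SNAP-549-labelled MS2 coat protein, doubled from 0.7 or 1.5 nM to 3 µM, in Tris-HCl pH 7.5 buffer with KCl, MgCl2, BSA, DTT, tRNA and Tween-20, with no input, 200 uM small-molecule ligand, or an oligonucleotide input. The RNA switches were transcribed on Illumina chips by stalled E. coli RNA polymerase.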
# [1] = input ligand: microRNA oligo, concentration not stated
# [2] = Eterna round: R95, input ligand: microRNA oligo, concentration not stated
Sequence,apparent KD of MS2 coat protein (input ligand: FMN 200 uM),apparent KD of MS2 coat protein [1],apparent KD of MS2 coat protein (input ligand: none),apparent KD of MS2 coat protein [2]
"GUCCUCAUGACAUGAGGAUCACCCAUGUAUUAUUUGUUAACUGAGGAUAUACUCUUAAUGUUUAUGUAGAAGGCAGAUUCGGUC [JR_ExcNG3_Sub019] (Eterna round: R96, puzzle: Exclusion NG 3)",51.6 nM,37.8 nM,40.7 nM,
"GUCCUGGACUAUCACAAGCACAUGAGGAUCACCCAUGUCAUGGGUAGAUUUAUAAAUAAAGAUACUGCUCGUCUUAU [Cac Sensor turn off var1 sub7] (Eterna round: R97, puzzle: Sensor, turn-off variant 1)",197 nM,,252 nM,
GUCGAGUGAGGAUAUGGUGAGUAGUGCCUGAGCGCUGCUCACCAGAAGGCACAUGAGGAUCACCCAUGUAUAGC [JL-ex4-2.05 denovo] (puzzle: Exclusion 4),,,,15.5 nM
GUCGAGUGAGGAUAUGGUGAGUAGUGCCUGAGCGCUGCUCACCAGAAGGCACAUGAGGAUCACCCAUGUAUGAC [Mat - Exclusion 4 - Mod of JL - D12] (puzzle: Exclusion 4),,,,17.8 nM
"GUCGUGCAGCUUUGCUGUACGAGUACAUGAGGAUCACCCAUGUAGGAUAUGGUACGCUUUGCGUGCCAGAAGGACGUGCGUUGG [salish99_ExNG3_r04_004] (Eterna round: R96, puzzle: Exclusion NG 3)",,38.3 nM,,
"GUCGUGCGGCUUUGCUGUACGAGUACAUGAGGAUCACCCAUGUAGGAUAUGGUUCGCUUUGCGUGCCAGAAGGGCGUGCGUUGG [Excl-NG3-LRO12] (Eterna round: R96, puzzle: Exclusion NG 3)",31.3 nM,21.6 nM,31.1 nM,
"GUCGUGUUAGGAUAUGGCAACUACUAAUAAAUUAGUAGUUGUUAGAAGGAACAUGAGGAUCACCCAUGUAUGAC [-23, -22.5 kcal, A 34%] (Eterna round: R97, puzzle: Exclusion 4)",122 nM,,39.9 nM,
"GUGAAACAUGAGGAUCACCCAUGUCAGGAUAUGCGAAUUUCAUCAAAAGAUGAAAUUUGCAGAAGGGACUGUAC [Omei Ex1 A21] (Eterna round: R97, puzzle: Exclusion 1)",136 nM,,70.3 nM,
GUGAAACAUGAGGAUCACCCAUGUGAGGAUAUGUUUUAGUACUGGAGACAGUACAUCUAUAGAAGGCACAAUGG [Mat - Mod of JL D75] (puzzle: Exclusion 1),,,,54.7 nM
"GUGAGCAGACGGAGAUCCAACAUGAGGAUCACCCAUGUCUCACAAGCUUUUUGCUCGUCUUAUCCUCCUCUGUUCAC [Elimod 22 - Jieux - Sensor, turn-off variant 1] (Eterna round: R97, puzzle: Sensor, turn-off variant 1)",15.8 nM,,14.6 nM,
"GUGAGGGAGUGAGGAUAUCAGGGAGAUAAGAAAUGAGAAGGUACAUGAGGAUCACCCAUGUAAGAGUAGGGAAGAGAGAAGAGU [Default title] (Eterna round: R96, puzzle: Exclusion NG 1)",69.3 nM,31.6 nM,66.7 nM,
"GUGAUAACCAAGCUAGCCAACAUGAGGAUCACCCAUGUGUUCGAUAUGCAACAGGUAUGAUCUUAAUUUGCUCGAUC [Eternabot (Original) Solution 20] (Eterna round: R97, puzzle: Sensor, turn-off variant 1)",44.3 nM,,48.5 nM,
"GUGAUCUAUCAUGUAAUGAACAUGAGGAUCACCCAUGUAGGCAAGUUUUUUGCUCGUCACAUAAUAAGAUAGAUCAC [Antenna 19 - Jieux - Sensor, turn-off variant 1] (Eterna round: R97, puzzle: Sensor, turn-off variant 1)",14.3 nM,,13.2 nM,
"GUGCAACAUGAGGAUCACCCAUGUCAGGAUAUGCGAAUUUCAUCAAAAGAUGAAAUUUGCAGAAGGGACUGUAC [Omei Ex1 A20] (Eterna round: R97, puzzle: Exclusion 1)",40.6 nM,,48.9 nM,
"GUGCCGCGAGGAUAUACAGACGGGUCCAGGGCGUGUCUCGGACUUGAGGAUCACCCAAGUAGAAGGCGUCUCAG [salish99_ex2_r4_615] (Eterna round: R97, puzzle: Exclusion 2)",77.6 nM,,26.7 nM,
"GUGCCGCGAGGAUAUACAGACGGGUCCAUUACGUGUCUCGGACUUGAGGAUCACCCAAGUAGAAGGCGUUUCAG [salish99_ex2_r4_624] (Eterna round: R97, puzzle: Exclusion 2)",20.7 nM,,38.4 nM,
